Assay results from US20130171059A1 (AbbVie / Abbott, published 2013).

Legend:
[1] = target: T1, Recombinant Human SOST (human, UniProt Q9BQB4 24-213); experiment: cell-based or functional assay
T1 sequence (looked up): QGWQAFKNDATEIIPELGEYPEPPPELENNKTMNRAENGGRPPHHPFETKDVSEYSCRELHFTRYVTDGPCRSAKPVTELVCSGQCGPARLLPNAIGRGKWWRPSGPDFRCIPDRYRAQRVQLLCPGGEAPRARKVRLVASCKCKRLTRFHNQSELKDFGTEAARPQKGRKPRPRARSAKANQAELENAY

[2] = target: T2, Recombinant Human TNF-α/TNFSF1A (human, UniProt P01375 77-233); experiment: cell-based or functional assay
[3] = target: T2, Recombinant Human TNF-α/TNFSF1A; experiment: SPR (Biacore)
Method: (§1) The BIACORE assay (Biacore, Inc, Piscataway, N.J.) determined the affinity of antibodies or DVD-Ig proteins with kinetic measurements of on-rate and off-rate constants. Binding of antibodies or DVD-Ig proteins to a target antigen (for example, a purified recombinant target antigen) was determined by surface plasmon resonance-based measurements with a Biacore® 1000 or 3000 instrument (Biacore® AB, Uppsala, Sweden) using running HBS-EP (10 mM HEPES [pH 7.4], 150 mM NaCl, 3 mM EDTA, and 0.005% surfactant P20) at 25° C. All chemicals were obtained from Biacore® AB (Uppsala, Sweden) or otherwise from a different source as described in the text. For example, approximately 5000 RU of goat anti-mouse IgG, (Fcγ), fragment specific polyclonal antibody (Pierce Biotechnology Inc, Rockford, Ill.) diluted in 10 mM sodium acetate (pH 4.5) was directly immobilized across a CM5 research grade biosensor chip using a standard amine coupling kit according to manufacturer's instructions and procedures at 25 μg/ml. Unreacted moieties on the biosensor surface were blocked with ethanolamine. Modified carboxymethyl dextran surface in flowcell 2 and 4 was used as a reaction surface. Unmodified carboxymethyl dextran without goat anti-mouse IgG in flow cell 1 and 3 was used as the reference surface. For kinetic analysis, rate equations derived from the 1:1 Langmuir binding model were fitted simultaneously to association and dissociation phases of all eight injections (using global fit analysis) with the use of Biaevaluation 4.0.1 software. Purified antibodies or DVD-Ig proteins were diluted in HEPES-buffered saline for capture across goat anti-mouse IgG specific reaction surfaces. Antibodies or DVD-Ig proteins to be captured as a ligand (25 μg/ml) were injected over reaction matrices at a flow rate of 5 μl/minute. The association and dissociation rate constants, kₒₙ (M⁻¹s⁻¹) and koff (s⁻¹) were determined under a continuous flow rate of 25 μl/minute. Rate constants were derived by making kinetic binding measurements at different antigen concentrations ranging from 10-200 nM. The equilibrium dissociation constant (M) of the reaction between antibodies or DVD-Ig proteins and the target antigen was then calculated from the kinetic rate constants by the following formula: KD=koff/kₒₙ. Binding was recorded as a function of time and kinetic rate constants were calculated.

[4] = target: T3, Recombinant Human β-NGF (human, UniProt P01138 122-239, limits assumed); experiment: SPR (Biacore)
T3 construct: Bought reagent for Biacore; also called huNGF; NGF (Rinat)
Method: as §1

[5] = target: T1, Recombinant Human SOST; experiment: SPR (Biacore)
Method: as §1

T3 sequence (P01138 122-239 limits assumed): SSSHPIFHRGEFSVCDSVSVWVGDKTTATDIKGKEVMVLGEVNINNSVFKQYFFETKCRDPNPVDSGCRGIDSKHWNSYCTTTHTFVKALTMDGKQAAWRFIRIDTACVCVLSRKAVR
T2 sequence (P01375 77-233 limits assumed): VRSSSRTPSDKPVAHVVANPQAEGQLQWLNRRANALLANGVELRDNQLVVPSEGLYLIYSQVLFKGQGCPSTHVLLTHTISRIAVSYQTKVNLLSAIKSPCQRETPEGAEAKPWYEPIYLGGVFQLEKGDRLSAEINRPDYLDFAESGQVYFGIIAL

B1: DVD1982 (bispecific antibody, not shown: a dimerising Fc or GST)
heavy: DIQMTQSPSSLSASVGDRVTITCRASQGIRIDLGWYQQKPGKAPKRLIYAASTLQSGVPSRFSGSGSGTEFIFTISSLQPEDFASYYCLQHKSYPLTFGGGTKVEIKRTVAAPEVQLQQSGPELVTPGASVKISCKASGYTFTDHYMSWVKQSHGKSLEWIGDINPYSGETTYNQKFKGTATLTVDKSSSIAYMEIRGLTSEDSAVYYCARDDYDASPFAYWGQGTLVTVSA
light: QVQLVESGGGVVQPGRSLRLSCAASGFTFSSYDMHWVRQAPGKGLEWVAVIWSDGSIKYYADSVKGRFTISRDNSKNTLYLQMNSLRAEDTAVYYCAREVESAMGGFYYNGMDVWGQGTTVTVSSASTKGPDVQMIQSPSSLSASLGDIVTMTCQASQGTSINLNWFQQKPGKAPKLLIYGSSNLEDGVPSRFSGSRYGTDFTLTISSLEDEDLATYFCLQHSYLPYTFGGGTKLEIKR
- C-Terminal VD SOST Neutralization Assay IC50 (Wnt-1/luciferase HEK clone #14) [1]: > 100 nM
- N-Terminal VD TNFa Neutralization Assay IC50 (L929 cells) [2]: 0.017 nM

B2: DVD1959 (bispecific antibody, not shown: a dimerising Fc or GST)
heavy: DVQMIQSPSSLSASLGDIVTMTCQASQGTSINLNWFQQKPGKAPKLLIYGSSNLEDGVPSRFSGSRYGTDFTLTISSLEDEDLATYFCLQHSYLPYTFGGGTKLEIKRTVAAPQVQLKESGPGLVAPSQSLSITCTVSGFSLTDYGVNWVRQPPGKGLEWLGMIWGDGSTDYDSTLKSRLSISKDNSKSQIFLKMNSLQTDDTARYYCAREWHHGPVAYWGQGTLVTVSA
light: EVQLQQSGPELVTPGASVKISCKASGYTFTDHYMSWVKQSHGKSLEWIGDINPYSGETTYNQKFKGTATLTVDKSSSIAYMEIRGLTSEDSAVYYCARDDYDASPFAYWGQGTLVTVSAASTKGPDIVMTQSHKFMSTTVGDRVSITCKASQAVSSAVAWYQQKPGQSPKLLIYWASTRHTGVPDRFTGSGSVTDFTLTIHNLQAEDLALYYCQQHYSTPFTFGSGTKLEIKR
- N-Terminal VD SOST Neutralization Assay IC50 (Wnt-1/luciferase HEK clone #14) [1]: 54.2 nM
- C-Terminal VD TNFα Neutralization Assay IC50 (L929 cells) [2]: 1.52 nM

B3: DVD1993 (bispecific antibody)
DVD-H: DIQMTQSPSSLSASVGDRVTITCRASQSISNNLNWYQQKPGKAPKLLIYYTSRFHSGVPSRFSGSGSGTDFTFTISSLQPEDIATYYCQQEHTLPYTFGQGTKLEIKRTVAAPEVQLVESGGGLIQPGGSLRLSCAASGFTVSRNYMSWVRQAPGKGLEWVSVIYSGDRTYYADSVKGRFTISRDNSKNTLYLQMNSLRAEDTAVYYCARGEGGFDYWGQGTLVTVSS
DVD-L: QVQLQESGPGLVKPSETLSLTCTVSGFSLIGYDLNWIRQPPGKGLEWIGIIWGDGTTDYNSAVKSRVTISKDTSKNQFSLKLSSVTAADTAVYYCARGGYWYATSYYFDYWGQGTLVTVSSASTKGPEIVMTQSPATLSVSPGERATLSCRASQSVSSNLAWYQQKPGQAPRLLIHGASIRATGLPARFSGSGSGTEFTLTISSLQSEDFAVYYCQQYNYWWTFGQGTKVEIK
notes: VH/VL crossover DVD-Ig; also called DVD1993H + DVD1993L; copies: 2 + 2
- Kd [3]: 0.43 nM
- koff [3]: 3.5e-05 s⁻¹
- kon [3]: 81000 M⁻¹ s⁻¹
- Kd [4]: 0.0047 nM
- koff [4]: 1.5e-05 s⁻¹
- kon [4]: 3.3e+06 M⁻¹ s⁻¹
- C-Terminal VD TNFα Neutralization Assay IC50 (L929 cells) [2]: 2.08 nM

B4: AB217 (antibody, V domains shown)
VH: QVQLVESGGGVVQPGRSLRLSCAASGFTFSSYDMHWVRQAPGKGLEWVAVIWSDGSIKYYADSVKGRFTISRDNSKNTLYLQMNSLRAEDTAVYYCAREVESAMGGFYYNGMDVWGQGTTVTVSS
VL: DIQMTQSPSSLSASVGDRVTITCRASQGIRIDLGWYQQKPGKAPKRLIYAASTLQSGVPSRFSGSGSGTEFIFTISSLQPEDFASYYCLQHKSYPLTFGGGTKVEIKR
notes: Parent antibody
- Kd [3]: 0.028 nM
- koff [3]: 4.8e-05 s⁻¹
- kon [3]: 1.7e+06 M⁻¹ s⁻¹
- TNFα Neutralization Assay IC50 (L929 cells) [2]: 0.313 nM

B5: AB218 (antibody, V domains shown)
VH: EVQLVESGGGLIQPGGSLRLSCAASGFTVSRNYMSWVRQAPGKGLEWVSVIYSGDRTYYADSVKGRFTISRDNSKNTLYLQMNSLRAEDTAVYYCARGEGGFDYWGQGTLVTVSS
VL: EIVMTQSPATLSVSPGERATLSCRASQSVSSNLAWYQQKPGQAPRLLIHGASIRATGLPARFSGSGSGTEFTLTISSLQSEDFAVYYCQQYNYWWTFGQGTKVEIKR
notes: Parent antibody
- Kd [3]: 0.041 nM
- koff [3]: 7.3e-05 s⁻¹
- kon [3]: 1.8e+06 M⁻¹ s⁻¹
- TNFα Neutralization Assay IC50 (L929 cells) [2]: 0.179 nM

B6: DVD1983 (bispecific antibody, not shown: a dimerising Fc or GST)
heavy: DVQMIQSPSSLSASLGDIVTMTCQASQGTSINLNWFQQKPGKAPKLLIYGSSNLEDGVPSRFSGSRYGTDFTLTISSLEDEDLATYFCLQHSYLPYTFGGGTKLEIKRTVAAPQVQLVESGGGVVQPGRSLRLSCAASGFTFSSYDMHWVRQAPGKGLEWVAVIWSDGSIKYYADSVKGRFTISRDNSKNTLYLQMNSLRAEDTAVYYCAREVESAMGGFYYNGMDVWGQGTTVTVSS
light: EVQLQQSGPELVTPGASVKISCKASGYTFTDHYMSWVKQSHGKSLEWIGDINPYSGETTYNQKFKGTATLTVDKSSSIAYMEIRGLTSEDSAVYYCARDDYDASPFAYWGQGTLVTVSAASTKGPDIQMTQSPSSLSASVGDRVTITCRASQGIRIDLGWYQQKPGKAPKRLIYAASTLQSGVPSRFSGSGSGTEFIFTISSLQPEDFASYYCLQHKSYPLTFGGGTKVEIKR
- N-Terminal VD SOST Neutralization Assay IC50 (Wnt-1/luciferase HEK clone #14) [1]: > 360 nM
- C-Terminal VD TNFα Neutralization Assay IC50 (L929 cells) [2]: 0.127 nM

B7: DVD1985 (bispecific antibody)
DVD-H: DIQMTQSPSSLSASVGDRVTITCRASQSISNNLNWYQQKPGKAPKLLIYYTSRFHSGVPSRFSGSGSGTDFTFTISSLQPEDIATYYCQQEHTLPYTFGQGTKLEIKRTVAAPQVQLVESGGGVVQPGRSLRLSCAASGFTFSSYDMHWVRQAPGKGLEWVAVIWSDGSIKYYADSVKGRFTISRDNSKNTLYLQMNSLRAEDTAVYYCAREVESAMGGFYYNGMDVWGQGTTVTVSS
DVD-L: QVQLQESGPGLVKPSETLSLTCTVSGFSLIGYDLNWIRQPPGKGLEWIGIIWGDGTTDYNSAVKSRVTISKDTSKNQFSLKLSSVTAADTAVYYCARGGYWYATSYYFDYWGQGTLVTVSSASTKGPDIQMTQSPSSLSASVGDRVTITCRASQGIRIDLGWYQQKPGKAPKRLIYAASTLQSGVPSRFSGSGSGTEFIFTISSLQPEDFASYYCLQHKSYPLTFGGGTKVEIK
notes: VH/VL crossover DVD-Ig; also called DVD1985H + DVD1985L; copies: 2 + 2
- Kd [3]: 0.43 nM
- koff [3]: 1.9e-05 s⁻¹
- kon [3]: 45000 M⁻¹ s⁻¹
- Kd [4]: 0.012 nM
- koff [4]: 3.7e-05 s⁻¹
- kon [4]: 3.1e+06 M⁻¹ s⁻¹
- C-Terminal VD TNFα Neutralization Assay IC50 (L929 cells) [2]: 4.51 nM

B8: AB213 (antibody, V domains shown)
VH: QVQLKESGPGLVAPSQSLSITCTVSGFSLTDYGVNWVRQPPGKGLEWLGMIWGDGSTDYDSTLKSRLSISKDNSKSQIFLKMNSLQTDDTARYYCAREWHHGPVAYWGQGTLVTVSA
VL: DIVMTQSHKFMSTTVGDRVSITCKASQAVSSAVAWYQQKPGQSPKLLIYWASTRHTGVPDRFTGSGSVTDFTLTIHNLQAEDLALYYCQQHYSTPFTFGSGTKLEIKR
notes: Parent antibody
- Kd [3]: 0.025 nM
- koff [3]: 8.2e-05 s⁻¹
- kon [3]: 3.2e+06 M⁻¹ s⁻¹
- TNFα Neutralization Assay IC50 (L929 cells) [2]: 0.244 nM

B9: AB022 (antibody, V domains shown)
VH: EVQLQQSGPELVTPGASVKISCKASGYTFTDHYMSWVKQSHGKSLEWIGDINPYSGETTYNQKFKGTATLTVDKSSSIAYMEIRGLTSEDSAVYYCARDDYDASPFAYWGQGTLVTVSA
VL: DVQMIQSPSSLSASLGDIVTMTCQASQGTSINLNWFQQKPGKAPKLLIYGSSNLEDGVPSRFSGSRYGTDFTLTISSLEDEDLATYFCLQHSYLPYTFGGGTKLEIKR
notes: Parent antibody; also called SOST parent antibody
- SOST Neutralization Assay IC50 (Wnt-1/luciferase HEK clone #14) [1]: 34.8 nM
- Kd [5]: 0.018 nM
- koff [5]: 0.00038 s⁻¹
- kon [5]: 2.1e+07 M⁻¹ s⁻¹
